Results on six molecules are retold here after article PMC8458385, “Molecular basis for PICS-mediated piRNA biogenesis and cell division” (Nature Communications, 2021).

Usually Kd stands for the free concentration of one partner at which half of the binding sites on the other are occupied at equilibrium, for simple one-to-one binding.

B5: ERH-2 (natural protein, C. elegans, UniProt Q20057 1-113, looked up)
chain: MSTSSHTVLLIQTSPRLDSRTWGDYESVTDALDALCKMFEDFLSKKSAAPVTYDVSQVYEFLDKLSDVSMMIFNRETGQYIGRTRAWIKQQVYEMMRGRCQHPEGGEKVIVGY
notes: ERH-2, C. elegans, amplified from a cDNA library; also called wild type ERH-2; source: E. coli BL21(DE3), purified (Ni-NTA, TEV, second Ni-NTA); not shown: His tag (from the Ni-NTA purification), N-terminal, cleaved

Data set [1] deals with the molecule itself. The data set can be described thus: crystal structure; fusion protein ERH-2^1-103-(GSS)7-PICS-1^180-200, 2.40 Å; 15% 2-propanol, 0.1 M sodium citrate pH 5.0, 10% PEG 10000, 18 °C.
The data set “ERH-2” addresses B5. The experiment in a line: ITC; MicroCal ITC200, 25 °C, 20 mM Tris pH 8.5, 200 mM NaCl or 20 mM MES pH 6.5, 200 mM NaCl; 1–2 mM in the syringe into 30–50 μM in the cell; one-site binding model. Particulars: both partners purified. In general terms: Isothermal titration calorimetry measures the heat released or taken up as one component is titrated into another.
Data set [2] addresses T1, ERH-2^1-103-(Gly-Ser-Ser)7-PICS-1^180-200 (C. elegans, UniProt Q20057 1-103; O76616 180-200).
T1 construct: ERH-2, C. elegans, residues 1-103; 21-aa linker (Gly-Ser-Ser)7; PICS-1 (PID-3), C. elegans, EBM, residues 180-200; Cloned into pET28-MHL; The results on ITC say only 'ERH-2' for the fused part; the methods describe only the 1-103 fusion; also called ERH-2-(GSS)7-PICS-1; ERH-2^1-103-(GSS)7-PICS-1^180-200; source: E. coli BL21(DE3), purified (Ni-NTA, TEV, second Ni-NTA, Superdex 75); not shown: His …
T1 chain: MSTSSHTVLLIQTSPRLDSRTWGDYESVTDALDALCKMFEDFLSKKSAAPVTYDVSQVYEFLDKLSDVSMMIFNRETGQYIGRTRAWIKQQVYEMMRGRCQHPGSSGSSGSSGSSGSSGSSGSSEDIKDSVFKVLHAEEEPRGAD
The description is as above. Particulars: both partners purified.

For data set [3], the target named is T2, TOFU-6^RRM (residues 2-92) (C. elegans, UniProt Q09293 2-92).
T2 construct: TOFU-6, C. elegans, RRM domain, residues 2-92; Gene codon-optimised and synthesised; for the crystal co-expressed with PICS-1^RRM from a modified pETDuet-1; also called TOFU-6 RRM domain; TOFU-6^C; source: E. coli BL21(DE3), purified (Ni-NTA, TEV, second Ni-NTA; complex with PICS-1^RRM also Superdex 75); not shown: His tag (from the Ni-NTA purification), N-terminal, cleaved
T2 sequence (looked up): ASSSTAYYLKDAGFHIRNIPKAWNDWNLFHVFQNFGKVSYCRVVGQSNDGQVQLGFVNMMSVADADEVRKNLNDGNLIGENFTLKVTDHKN
Described as above. Particulars: both partners purified.

Data set [4] deals with the molecule itself. The data set can be described thus: SEC; wild type and F217E of PICS-1^RRM on HiLoad 16/600 Superdex 75, 20 mM Tris hydrochloride pH 8.5, 200 mM NaCl.
Data set [5] addresses T3, TOFU-6^RRM (L73M) (SeMet) (C. elegans, UniProt Q09293 2-92, L73M, seleno-methionine (SeMet) labeled).
T3 construct: TOFU-6, C. elegans, RRM domain, residues 2-92; also called SeMet TOFU-6^RRM(L73M); source: E. coli BL21(DE3) in M9 medium with SeMet, purified with PICS-1^RRM (I233M) (Ni-NTA, TEV, Superdex 75); not shown: His tag (from the Ni-NTA purification), N-terminal, cleaved
T3 sequence (looked up): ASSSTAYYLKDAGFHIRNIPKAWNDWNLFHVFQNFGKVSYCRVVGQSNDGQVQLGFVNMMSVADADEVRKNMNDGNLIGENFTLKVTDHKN
The experiment in a line: crystal structure; SeMet TOFU-6^RRM (L73M)/PICS-1^RRM (I233M) complex, 1.95 Å; 2% 1,4-dioxane, 0.1 M Tris hydrochloride pH 8.0, 15% PEG 3350, 0.01 M nickel chloride, 18 °C. Particulars: both partners purified.

Data set [6] deals with the molecule itself. Described as above.
A further data set addresses T4, PICS-1^5-282 (C. elegans, UniProt O76616 5-282).
T4 construct: Cloned into pET28-MHL; also called almost full-length PICS-1; source: E. coli BL21(DE3), purified (Ni-NTA, TEV, second Ni-NTA); not shown: His tag (from the Ni-NTA purification), N-terminal, cleaved
T4 sequence (looked up): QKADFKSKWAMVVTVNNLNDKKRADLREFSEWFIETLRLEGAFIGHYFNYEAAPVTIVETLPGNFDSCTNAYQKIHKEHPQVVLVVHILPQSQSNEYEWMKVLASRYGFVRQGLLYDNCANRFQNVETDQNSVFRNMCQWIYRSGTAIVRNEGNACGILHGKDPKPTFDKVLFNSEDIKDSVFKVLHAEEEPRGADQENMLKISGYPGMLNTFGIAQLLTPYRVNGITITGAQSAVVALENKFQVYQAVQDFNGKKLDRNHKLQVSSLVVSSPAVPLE
The data set can be described thus: SEC; ERH-2 and TOFU-6^RRM mixed with PICS-1 constructs, Superose 6 Increase 10/300 GL, 20 mM Tris hydrochloride pH 8.5, 200 mM NaCl; fractions on SDS-PAGE. Particulars: both partners purified. For orientation: Size exclusion chromatography separates by hydrodynamic size, large species first.

For a further data set, the target named is T5, PICS-1^5-200 (C. elegans, UniProt O76616 5-200).
T5 construct: PICS-1 (PID-3), C. elegans, residues 5-200; Cloned into pET28-MHL; also called PICS-1^ΔRRM; PICS1^ΔRRM; source: E. coli BL21(DE3), purified (Ni-NTA, TEV, second Ni-NTA); not shown: His tag (from the Ni-NTA purification), N-terminal, cleaved
T5 sequence (looked up): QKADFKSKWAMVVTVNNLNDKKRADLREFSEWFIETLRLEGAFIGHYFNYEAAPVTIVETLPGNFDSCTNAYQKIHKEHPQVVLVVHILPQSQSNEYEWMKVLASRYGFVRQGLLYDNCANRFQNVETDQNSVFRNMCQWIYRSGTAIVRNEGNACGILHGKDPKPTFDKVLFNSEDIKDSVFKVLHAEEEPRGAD
The data set is described as above. The settings on record: both partners purified.

A further data set deals with T6, ERH-2 D67A (C. elegans, UniProt Q20057 1-113, D67A).
T6 construct: ERH-2, C. elegans; Cloned into pET28-MHL; also called D67A of ERH-2; source: E. coli BL21(DE3), purified as the wild type; not shown: His tag (from the Ni-NTA purification), N-terminal, cleaved
T6 sequence (looked up): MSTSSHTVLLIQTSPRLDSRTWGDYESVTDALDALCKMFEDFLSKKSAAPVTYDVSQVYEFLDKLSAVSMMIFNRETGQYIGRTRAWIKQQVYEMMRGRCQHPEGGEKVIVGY
The experiment in a line: ITC; MicroCal ITC200, 25 °C, 20 mM Tris pH 8.5, 200 mM NaCl or 20 mM MES pH 6.5, 200 mM NaCl; 1–2 mM in the syringe into 30–50 μM in the cell; one-site binding model. The settings on record: both partners purified.

B1: ERH-2 (1-103), the ERH-2 part of the crystallised fusion proteins (domain or fragment, C. elegans, UniProt Q20057 1-103, looked up)
chain: MSTSSHTVLLIQTSPRLDSRTWGDYESVTDALDALCKMFEDFLSKKSAAPVTYDVSQVYEFLDKLSDVSMMIFNRETGQYIGRTRAWIKQQVYEMMRGRCQHP
notes: ERH-2, C. elegans, residues 1-103; In the crystals it stood joined on one chain with PICS-1^180-200 (via (GSS)7) or TOST-1^34-54 (via (GSS)6); written apart for the rows of the two partners; also called ERH-2^A; ERH-2^B; source: E. coli BL21(DE3), purified as part of the fusion proteins m8 and m9
Regarding B1, the binding result in data set [1] was “binds”.

B2: SUMO-fused PID-1^50-70 (domain or fragment, C. elegans, UniProt Q19541 50-70, looked up)
chain: TNLHRKVTLSDRFELAALGYE
notes: PID-1, C. elegans, residues 50-70; the results say it was fused to the C-terminus of SUMO; also called PID-1 fragment; source: E. coli BL21(DE3), purified (Ni-NTA); not shown: SUMO, N-terminal, kept
As to B2, the Kd with ERH-2 came out at 18 µM; in [2], 12 µM.

B3: PICS-1^RRM (residues 201-282) (domain or fragment, C. elegans, UniProt O76616 201-282, looked up)
chain: QENMLKISGYPGMLNTFGIAQLLTPYRVNGITITGAQSAVVALENKFQVYQAVQDFNGKKLDRNHKLQVSSLVVSSPAVPLE
notes: Homodimer in the crystal and by gel filtration; also called PICS-1(PID-3) RRM domain; PID-3; source: E. coli BL21(DE3), purified (Ni-NTA, TEV, second Ni-NTA, Superdex 75); not shown: His tag (from the Ni-NTA purification), N-terminal, cleaved
Turning to B3, binding in data set [3] was characterised by a dissociation constant (Kd) of 0.0062 µM. For the same molecule, the binding result in [4] is reported as “binds”.

B4: PICS-1^RRM (I233M) (SeMet) (domain or fragment, C. elegans, UniProt O76616 201-282, looked up)
chain: QENMLKISGYPGMLNTFGIAQLLTPYRVNGITMTGAQSAVVALENKFQVYQAVQDFNGKKLDRNHKLQVSSLVVSSPAVPLE
modifications: seleno-methionine (SeMet) labeled
notes: also called SeMet PICS-1^RRM(I233M); source: E. coli BL21(DE3) in M9 medium with SeMet, purified with TOFU-6^RRM (L73M) (Ni-NTA, TEV, Superdex 75); not shown: His tag (from the Ni-NTA purification), N-terminal, cleaved
B4: the binding result in data set [5] and in data set [6] was “binds” throughout.

B5: the binding result in the data set with PICS-1^5-282 and with PICS-1^5-200 was “binds” throughout.

B6: SUMO-fused PICS-1 ERH-2 binding motif (EBM, residues 180-200) (domain or fragment, C. elegans, UniProt O76616 180-200, looked up)
chain: EDIKDSVFKVLHAEEEPRGAD
notes: Cloned into pET28-SUMO; the Kds are for the SUMO fusion protein; also called PICS-1^EBM; PICS-1^180-200; source: E. coli BL21(DE3), purified (Ni-NTA); not shown: SUMO, N-terminal, kept
For the molecule B6, the dissociation constant (Kd) in the data set with ERH-2 was 8.5 µM; with ERH-2 D67A, 4.3 µM.
